Measured values taken from patent US10864269B2, “Therapeutic combinations comprising anti-CD73 antibodies and uses thereof” (MedImmune Limited, priority 2014, dated 2020).

Assays:
[1] = biological target: T1, Murine CD73 ECD (Mus musculus, UniProt Q61503); assay: Surface plasmon resonance (ProteOn), murine CD73; type: binding; settings: SPR
T1 construct: made in house; host or cells: mammalian cells
T1 sequence (Q61503 29-551 limits assumed): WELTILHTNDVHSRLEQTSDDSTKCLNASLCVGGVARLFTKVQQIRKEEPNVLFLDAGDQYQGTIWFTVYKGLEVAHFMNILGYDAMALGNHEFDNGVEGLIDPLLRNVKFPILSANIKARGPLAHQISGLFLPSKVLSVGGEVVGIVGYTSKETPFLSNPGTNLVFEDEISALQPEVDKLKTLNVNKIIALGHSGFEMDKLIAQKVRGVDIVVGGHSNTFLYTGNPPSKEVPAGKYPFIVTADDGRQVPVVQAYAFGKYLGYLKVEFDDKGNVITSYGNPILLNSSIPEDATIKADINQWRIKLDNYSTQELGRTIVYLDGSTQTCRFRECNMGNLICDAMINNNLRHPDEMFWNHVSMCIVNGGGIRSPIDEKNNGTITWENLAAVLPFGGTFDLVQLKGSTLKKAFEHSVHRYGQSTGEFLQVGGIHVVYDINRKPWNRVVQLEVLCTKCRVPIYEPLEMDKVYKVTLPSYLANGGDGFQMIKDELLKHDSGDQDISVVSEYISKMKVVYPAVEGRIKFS
Experimental: (§1) A ProteOn XPR36 instrument was used to characterize binding of MEDI9447 to human, murine, and cynomolgus CD73 ECD. MEDI9447 was affinity-captured using an anti-human Fc antibody. CD73 ECD was in the mobile phase. The association and dissociation of CD73 to MEDI9447 could be accurately described with the Langmuir 1:1 model.
(§2) The affinity of enhanced anti-CD73 antibodies (in IgG1-TM format) to human, murine, and cynomolgus CD73 was determined by flow cytometry and surface plasmon resonsance (SPR) (Table 13). The enhanced antibodies had pM affinity to cellular and recombinant CD73 from the three species.

[2] = test system: Cynomolgus CD73 ECD; assay: Surface plasmon resonance (ProteOn), cynomolgus CD73; type: binding; settings: SPR
Experimental: as §1, §2

[3] = biological target: T2, native CD73, MDA-MB-231 cells (Homo sapiens, UniProt P21589); assay: Flow cytometry binding to native CD73, MDA-MB-231 cells
T2 construct: native CD73 expressed on human, murine, and cynomolgus monkey cell lines; endogenous in cells; host or cells: MDA-MB-231
T2 sequence (P21589 27-549): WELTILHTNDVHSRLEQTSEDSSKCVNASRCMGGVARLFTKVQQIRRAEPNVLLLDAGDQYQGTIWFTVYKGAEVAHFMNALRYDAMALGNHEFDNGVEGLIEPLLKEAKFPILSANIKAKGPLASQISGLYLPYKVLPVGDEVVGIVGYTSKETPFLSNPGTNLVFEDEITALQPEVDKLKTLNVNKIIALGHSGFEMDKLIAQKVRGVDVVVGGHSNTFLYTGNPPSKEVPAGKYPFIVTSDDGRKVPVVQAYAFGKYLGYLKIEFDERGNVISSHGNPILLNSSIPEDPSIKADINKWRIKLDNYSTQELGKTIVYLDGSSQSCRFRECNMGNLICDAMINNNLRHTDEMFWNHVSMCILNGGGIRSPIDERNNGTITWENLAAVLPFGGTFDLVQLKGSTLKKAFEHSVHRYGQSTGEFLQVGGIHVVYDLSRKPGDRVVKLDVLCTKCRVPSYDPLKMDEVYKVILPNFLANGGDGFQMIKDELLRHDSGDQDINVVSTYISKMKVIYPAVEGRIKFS
Experimental: (§3) Binding of MEDI9447 to native CD73 expressed on human, murine, and cynomolgus monkey cell lines was characterized by flow cytometry. The cells were incubated with various concentrations of MEDI9447 and antibody binding was monitored with and fluorophore-labeled anti-human Fc antibody. A plot of the median fluorescence intensity as a function of the MEDI9447 concentration was fitted nonlinearly using a one-site binding isotherm model to calculate the equilibrium dissociation constant.
as §2
(§4) All flow cytometry experiments were run at 4C and reagents were prepared in PBS/1% FBS buffer. 10,000 cells were incubated with test antibody in 50 uL volume for 4 hours. Cells were washed twice and incubated in 50 uL goat anti-human IgGFc-AlexaFluor647 conjugate for 15 minutes. Cells were washed, resuspended in buffer supplemented with Dapi, and analyzed on a flow cytometer. […] For the determination of KD values, a plot of the median fluorescence intensity as a function of test antibody concentration was fitted nonlinearly using a one site binding isotherm model.

[4] = biological target: T3, native CD73, 4T1 cells (Mus musculus, UniProt Q61503); assay: Flow cytometry binding to native CD73, 4T1 cells; settings: as measured by flow cytometry; read-out: KD, CD73 on the surface of murine 3T1 cells
T3 construct: native CD73 expressed on human, murine, and cynomolgus monkey cell lines; endogenous in cells; host or cells: 4T1
T3 sequence (Q61503 29-551): T1 sequence (Q61503 29-551 limits assumed)
Experimental: as §3, §2, §4

[5] = test system: native CD73, MK-1 cells; assay: Flow cytometry binding to native CD73, MK-1 cells; settings: as measured by flow cytometry; read-out: KD, CD73 on the surface of cynomolgus MK-1 cells
Experimental: as §3, §2, §4

[6] = biological target: T4, CD73 on the cell surface of MDA-MB-231 cells (Homo sapiens, UniProt P21589); assay: Antibody-mediated internalization or shedding of CD73 by flow cytometry; type: cell-based; settings: for Percentage of CD73 remaining on the cell surface: 100 nM antibody, 37° C.
T4 construct: native CD73 expressed on human, murine, and cynomolgus monkey cell lines; endogenous in cells; host or cells: MDA-MB-231
T4 sequence (P21589 27-549): T2 sequence (P21589 27-549)
Experimental: Antibody-mediated internalization or shedding of CD73 was assessed by flow cytometry. MDA-MB-231 cells were incubated in presence of 100 nM MEDI9447 or negative control antibody R347 in growth medium at 37° C. for 0-4 hours. Cells were washed and resuspended in ice-cold PBS. The presence of CD73 on the cell surface was detected by adding 10 nM DyLight488-labeled detection antibody. Cells were incubated for 15 minutes, washed and analyzed by flow cytometry. The detection antibody binds to an epitope of CD73 that is different from the MEDI9447 epitope and both antibodies simultaneously bind to CD73 without interference.

[7] = biological target: T5, huCD73 (Homo sapiens, UniProt P21589); assay: Solution binding, human CD73; settings: as measured by solution binding
T5 sequence (P21589 27-549): T2 sequence (P21589 27-549)

[8] = biological target: T6, murine CD73 (Mus musculus, UniProt Q61503); assay: Solution binding, murine CD73; settings: as measured by solution binding
T6 sequence (Q61503 29-551): T1 sequence (Q61503 29-551 limits assumed)

[9] = biological target: cynomolgus CD73; assay: Solution binding, cynomolgus CD73; settings: as measured by solution binding

Substance: MEDI9447: IgG1 with CD730010-derived VL of SEQ ID NO: 68 and VH of SEQ ID NO: 82
- ka [1]: 2.41e+06 M⁻¹ s⁻¹
- kd [1]: 2.32e-06 s⁻¹
- ka [2]: 2.71e+06 M⁻¹ s⁻¹
- kd [2]: 1.76e-05 s⁻¹
- Kd ([3]; as measured by flow cytometry, read-out: KD, CD73 on the surface of MB-MDA-231 cells): ~0.15 nM
- KD values by flow cytometry, fold greater than those determined by SPR ([3]; human, murine and cynomolgus CD73): 13—126 fold
- Kd [4]: ~0.11 nM
- Kd [5]: ~0.08 nM
- Percentage of CD73 remaining on the cell surface ([6]; 0 h): 100%
- Percentage of CD73 remaining on the cell surface ([6]; 0.25 h): 90%
- Percentage of CD73 remaining on the cell surface ([6]; 0.5 h): 90%
- Percentage of CD73 remaining on the cell surface ([6]; 1 h): 87%
- Percentage of CD73 remaining on the cell surface ([6]; 2 h): 80%
- Percentage of CD73 remaining on the cell surface ([6]; 4 h): 73%
- CD73 either internalized or shed upon antibody binding ([6]; 4 hours incubation): 27%
- Kd [7]: ~0.08 nM
- Kd [8]: ~0.13 nM
- Kd [9]: ~0.09 nM
